Values of other authors in publication PMC6155412.
pKd: −log10 of the molar value.

Target: FPR2 (Homo sapiens) (UniProt P25090)
Chain of UniProt P25090 (P25090 whole entry): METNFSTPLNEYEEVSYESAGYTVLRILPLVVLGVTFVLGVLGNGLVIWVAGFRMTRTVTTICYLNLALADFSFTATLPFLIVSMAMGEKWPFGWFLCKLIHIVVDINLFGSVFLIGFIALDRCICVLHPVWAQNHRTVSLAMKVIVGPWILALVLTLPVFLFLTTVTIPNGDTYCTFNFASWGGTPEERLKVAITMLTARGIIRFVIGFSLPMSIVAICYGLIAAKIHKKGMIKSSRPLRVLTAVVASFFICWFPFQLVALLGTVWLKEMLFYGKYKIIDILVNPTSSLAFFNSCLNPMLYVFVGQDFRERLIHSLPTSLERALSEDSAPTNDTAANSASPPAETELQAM

- pKd: 7.48
Substance: uteroglobin (UG) (from UniProt P11684)
